{"source": "paper PMC5483248", "about": "“The LacI family protein GlyR3 co-regulates the celC operon and manB in Clostridium thermocellum” (Biotechnology for Biofuels, 2017)", "key": {"[1]": {"molecular_target": "T1, GlyR3 (Clostridium thermocellum) (UniProt Q9AL35)", "T1 sequence": "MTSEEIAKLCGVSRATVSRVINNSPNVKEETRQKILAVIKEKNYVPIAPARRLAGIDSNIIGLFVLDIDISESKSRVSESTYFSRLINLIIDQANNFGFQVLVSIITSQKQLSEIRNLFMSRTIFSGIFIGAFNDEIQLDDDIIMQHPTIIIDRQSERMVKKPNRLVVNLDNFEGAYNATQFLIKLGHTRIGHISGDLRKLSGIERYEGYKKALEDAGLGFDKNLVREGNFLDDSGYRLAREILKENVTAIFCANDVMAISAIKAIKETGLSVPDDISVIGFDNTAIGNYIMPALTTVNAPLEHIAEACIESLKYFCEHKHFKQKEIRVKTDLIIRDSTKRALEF", "assay": "EMSA", "conditions": "LightShift Chemiluminescent EMSA kit, TBE gel; 0.2 ng biotin-DNA (0.156-0.204 nM), GlyR3 150 ng (387 nM) unless titrated; binding buffer salt, pH and …"}, "GlyR3 [2]": {"molecular_target": "T2, GlyR3 (Clostridium thermocellum, UniProt Q9AL35 1-345)", "T2 sequence": "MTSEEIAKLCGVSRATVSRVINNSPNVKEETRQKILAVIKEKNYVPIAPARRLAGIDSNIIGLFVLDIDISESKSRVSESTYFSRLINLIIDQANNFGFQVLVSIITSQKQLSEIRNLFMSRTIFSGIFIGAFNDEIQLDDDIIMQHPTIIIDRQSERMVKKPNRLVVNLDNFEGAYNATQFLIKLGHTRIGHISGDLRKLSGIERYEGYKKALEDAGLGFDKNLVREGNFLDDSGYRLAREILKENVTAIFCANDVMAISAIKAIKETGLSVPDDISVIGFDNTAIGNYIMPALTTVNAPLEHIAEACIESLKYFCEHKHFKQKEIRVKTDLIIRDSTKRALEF", "assay": "EMSA", "conditions": "LightShift Chemiluminescent EMSA kit, TBE gel, 0.2 ng biotin-DNA (0.156-0.204 nM), GlyR3 150 ng (387 nM) unless titrated, binding buffer salt, pH and …"}, "GlyR3 [3]": {"molecular_target": "T3, GlyR3 (Acetivibrio thermocellus, UniProt A3DJ78)", "T3 construct": "gene Cthe_2808; full gene cloned in pTXB1, expressed in E. coli T7 Express C2566, purified with the IMPACT (intein) system", "T3 sequence (A3DJ78 1-345)": "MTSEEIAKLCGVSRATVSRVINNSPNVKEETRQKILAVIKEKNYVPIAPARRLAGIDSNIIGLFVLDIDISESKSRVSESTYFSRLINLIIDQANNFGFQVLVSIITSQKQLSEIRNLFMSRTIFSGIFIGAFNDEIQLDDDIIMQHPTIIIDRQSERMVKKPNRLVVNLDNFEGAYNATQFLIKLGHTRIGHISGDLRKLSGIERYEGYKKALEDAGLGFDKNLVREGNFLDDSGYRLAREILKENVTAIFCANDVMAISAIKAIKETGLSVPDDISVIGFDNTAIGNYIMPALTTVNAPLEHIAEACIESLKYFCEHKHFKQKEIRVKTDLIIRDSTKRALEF", "assay": "EMSA, release of GlyR3 from biotin-labelled celC operator DNA (ImageJ)", "assay_type": "binding", "conditions": "GlyR3 150 ng (387 nM); celC DNA 0.2 ng (0.156 nM); laminaribiose 70 μg (100 mM); effector, dissociates repressor from celC site"}, "GlyR3 [4]": {"molecular_target": "T2, GlyR3", "assay": "competition; 500 ng 18-mer reverses shift of celC probe; LightShift Chemiluminescent EMSA kit, TBE gel; 0.2 ng biotin-DNA (0.156-0.204 nM), GlyR3 150 ng (387 nM) unless titrated; binding buffer salt, pH and temperature not given", "conditions": "protein: recombinant; tags: expressed from pTXB1 (IMPACT intein system, NEB); chain copies: 2; label: unlabeled; blunt"}, "GlyR3 [5]": {"molecular_target": "T2, GlyR3", "assay": "competition; 500 ng 18-mer reverses shift of manB probe; LightShift Chemiluminescent EMSA kit, TBE gel; 0.2 ng biotin-DNA (0.156-0.204 nM), GlyR3 150 ng (387 nM) unless titrated; binding buffer salt, pH and temperature not given", "conditions": "protein: recombinant; tags: expressed from pTXB1 (IMPACT intein system, NEB); chain copies: 2; label: unlabeled; blunt"}, "[6]": {"conditions": "387 nM GlyR3, 50 mM laminaribiose"}, "[7]": {"conditions": "387 nM GlyR3, 100 mM laminaribiose"}}, "note": "“And” between values parts separate entries of the source, which are not always exact repeats. Equal values may be shown once.", "data": [{"molecule": "CCGAATAAAAACTGGACAGAGAAGAAGAAAACGTGATATAATTAAATTAGAATGAACGCGCGTACATTATTGAATAATCCAGTGTTAAATGGTTTCAGTTTACGATTTCAAATGTTTATATCCAATTTACATTTAAAAACATACAAAACATCAAAAGTATTTAATACCAATATTTAAAACACAATATTTCAGGAGGA (double strand) [celC EMSA fragment]", "values": [{"measurement": "binding", "setting": "[1]", "result": "binds"}, {"measurement": "binding signal", "setting": "[1]", "result": 99, "unit": "% shifted"}]}, {"molecule": "TGAGCAAATCAATTGTAATATGAAGAAAAATATAGTAAGATATTAATAAAAGAATAAAATAATATATTGGTATAATATGTAAATCGGTTGCAGTAATGCTATTCCAATAAAAGATGAAAGATTTCCGTTAATTCATTGAAAGAAACGTTCTGCTGCA (double strand) [celT EMSA fragment]", "values": [{"measurement": "binding", "setting": "[1]", "result": "no binding"}]}, {"molecule": "TGTTATCTTCGGTTAGCTCATCAAGGTAATCATAGAATATATTATAAAGAGTAACAAAGTAAATAAACTCAGGTGTATTTTCTTTATATAGAATTCTCATTTGCTCAAGAACTTTATCTTTAACATCCTGAACAGCAGTATCATCCTCCCA (double strand) [random control DNA fragment]", "values": [{"measurement": "binding", "setting": "[1]", "result": "no binding"}]}, {"molecule": "manB EMSA fragment", "values": [{"measurement": "binding signal", "setting": "GlyR3 [2]; [6]", "result": 18, "unit": "% shifted"}, {"measurement": "binding signal", "setting": "GlyR3 [2]; [7]", "result": 19, "unit": "% shifted"}, {"measurement": "binding signal", "setting": "GlyR3 [2]; 387 nM GlyR3, no laminaribiose", "result": 18, "unit": "% shifted"}]}, {"molecule": "TCGGTGAATGTTGAGGTTGACAAGGAAGGACTTTATGAAATATTCATCTGCTATGTGCAGCCTTACGACAAAAACAAAAAAGTGCAGTATCTTAATGTAAACGGTGTCAATCAGGGAGAAATAAGCTTTCCGTTTACTCTTAAATGGAGAGAGATTTCAGCAGGA (double strand) [manB EMSA fragment]", "values": [{"measurement": "binding", "setting": "[1]", "result": "binds more weakly"}, {"measurement": "binding signal", "setting": "[1]", "result": "18 % shifted (2×) and 19 % shifted"}]}, {"molecule": "OC[C@H]1O[C@@H](O[C@H]2[C@H](O)[C@@H](CO)OC(O)[C@@H]2O)[C@H](O)[C@@H](O)[C@@H]1O", "note": "(stereo partly drawn) [laminaribiose]", "values": [{"measurement": "% celC DNA shifted at 100 mM laminaribiose", "setting": "GlyR3 [3]", "result": 67, "unit": "%"}]}, {"molecule": "celC EMSA fragment", "values": [{"measurement": "binding signal", "setting": "GlyR3 [2]; [6]", "result": 82, "unit": "% shifted"}, {"measurement": "binding signal", "setting": "GlyR3 [2]; [7]", "result": 67, "unit": "% shifted"}, {"measurement": "binding signal", "setting": "GlyR3 [2]; 387 nM GlyR3, no laminaribiose", "result": 99, "unit": "% shifted"}]}, {"molecule": "celC 18-mer competitor (dsDNA) DNA 1: AATGAACGCGCGTACATT DNA 2: AATGTACGCGCGTTCATT", "values": [{"measurement": "binding result", "setting": "GlyR3 [4]", "result": "binds"}]}, {"molecule": "manB 18-mer competitor (dsDNA) DNA 1: AATGTAAACGGTGTCAAT DNA 2: ATTGACACCGTTTACATT", "values": [{"measurement": "binding result", "setting": "GlyR3 [5]", "result": "binds"}]}]}
